For assay [1], the target named is T1, soluble TL1A-SH6 protein (his tagged) (Homo sapiens (Human), UniProt O95150 57-251, limits assumed).
T1 construct: also called TL1A SH6 antigen; not shown: His tag (detected with anti 6xHis antibody)
T1 sequence: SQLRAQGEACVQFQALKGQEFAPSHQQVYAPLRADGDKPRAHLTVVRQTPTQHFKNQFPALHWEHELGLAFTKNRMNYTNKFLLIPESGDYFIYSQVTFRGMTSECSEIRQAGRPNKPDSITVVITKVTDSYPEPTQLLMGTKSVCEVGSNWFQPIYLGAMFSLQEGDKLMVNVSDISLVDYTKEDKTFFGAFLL
The assay is described as follows: FACS, inhibition of the binding of TL1A SH6 (200 ng/ml) to hDR3 CHO cells, detection with PE anti-6xHis; the box prints no unit, the axis is Log nM. The protocol:
(§1) TL1A SH6 at 200 ng/ml (50 ul) was incubated with dilutions of 10A4.F7 (50 ul) antibody or control IgG1 antibody (all reagents in FACS buffer). The mixture was incubated for 30 minutes and then added to 10⁵ hDR3 CHO cells in 100 ul of FACS buffer and incubated for 1 hr. Cells were washed twice in FACS buffer and TL1A binding to DR3 CHO cells was detected by staining cells with PE anti 6×His antibody (R&D systems) and evaluated by FACS.
(§2) Identification of anti-TL1A antibodies that block TL1A binding to DR3 were also done by FACS by using soluble TL1A-SH6 protein (his tagged) binding to hDR3 expressed on CHO cells (DR3 CHO). Anti-TL1A or control antibodies were incubated with TL1A SH6 antigen at 0.1-0.5 ug/ml for 30 minutes in FACS buffer and then hDR3 CHO cells were added to the antibody TL1A mix and incubated for 30 minutes. Cells were washed and TL1A binding to hDR3 CHO cells was detected with PE anti-His antibody followed by FACS. Blocking antibodies prevent TL1A SH6 from binding to hDR3 CHO cells (FIG. 2).
A general note: A flow cytometer gives signals particle by particle.

Assay [2] deals with T2, TL1A expressed on transfected CHO cells (Homo sapiens (Human), UniProt O95150 1-251).
T2 construct: also called TL1A CHO cells; TL1A expressing CHOs cells
T2 sequence: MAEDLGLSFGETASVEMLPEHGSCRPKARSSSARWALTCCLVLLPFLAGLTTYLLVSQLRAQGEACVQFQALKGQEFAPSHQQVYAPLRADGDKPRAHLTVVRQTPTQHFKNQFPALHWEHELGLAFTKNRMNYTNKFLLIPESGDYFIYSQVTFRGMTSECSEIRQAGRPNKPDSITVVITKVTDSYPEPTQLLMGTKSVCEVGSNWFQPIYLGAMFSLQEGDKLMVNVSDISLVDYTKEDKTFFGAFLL
The assay is described as follows: FACS titration on TL1A CHO cells, detection with PE anti-human IgG (Fc specific); the box prints no unit, the axis is IgG (nM). The method, then:
(§3) Dilutions of TL1A antibody were incubated with 10⁵ TL1A CHO cells in 100 ul FACS buffer for 1 hr. Cells were washed two times with FACS buffer and antibody binding was detected by staining with PE anti human […] antibody and evaluated by FACS.
(§4) FACS assays were used to verify that antibodies of the disclosure are binding to native TL1A expressed on cells. Briefly, dilutions of antibody in PBS 1% BSA plus 0.5% sodium azide (FACS buffer) were incubated with transfected CHO cells expressing TL1A (10⁵ cells) for 30-60 minutes at 4 C. Cells were washed twice by centrifugation, aspiration of supernatant, and addition of fresh FACS buffer. Antibody binding to TL1A on cells was detected by incubating the cells in PE (Phycoerythrin) labeled goat anti-human IgG (Fc specific) antibody for 30 min at 4C, washing the cells 2× as above, and analyzing by FACS (FIG. 1).

The target in assay [3] is T1, soluble TL1A-SH6 protein (his tagged). The assay is described as follows: FACS competition: TL1A SH6 at 200 ng/ml pre-incubated with dilutions of 10A4.F7, then added to hDR3 CHO cells, PE anti 6xHis detection. The protocol: as §1, §2
Assay [4] concerns the target T3, Hu-TL1A-His (Homo sapiens, UniProt O95150).
T3 construct: recombinant, His-tagged; also called Hu-TL1A-His antigen (Lot#50182AS151)
T3 sequence (ligand chain, looked up): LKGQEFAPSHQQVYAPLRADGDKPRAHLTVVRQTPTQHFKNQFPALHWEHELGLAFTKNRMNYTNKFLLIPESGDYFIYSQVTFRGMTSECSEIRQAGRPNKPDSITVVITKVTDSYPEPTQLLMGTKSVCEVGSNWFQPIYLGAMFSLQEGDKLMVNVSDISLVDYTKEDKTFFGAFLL
Description: SPR (Biacore), 10A4.F7 captured on a protein G surface, Hu-TL1A-His as analyte at 250, 200, 150, 100 and 50n. The method, then: Protein G chip (CM5) was made by coating it […] using acetate buffer (pH2.9). 10A4.F7 mab (7.5 ug/mL, 12 uL) was captured at 10 uL/min flow rate on Protein G surface. Hu-TL1A-His antigen (Lot#50182AS151) at multiple concentrations (250, 200, 150, 100 & 50n) were flowed over captured mab for 5 min at 25 ul/min and allowed to dissociate for 7.5 min. Protein G surface was regenerated with 10 uL of 50 mM NaOH and 5 uL of 25 mM HCL at 100 uL/min flow rate. Data was analyzed by using Biaevaluation 3.1. (FIG. 3)
In general terms: In SPR one partner is held on a chip, and binding of the other changes the refractive index at the surface.

In assay [5] the target is T2, TL1A expressed on transfected CHO cells. Description: flow cytometry, titration of the antibody on TL1A CHO cells, PE anti-human IgG (Fc specific) detection. The method, then: as §3, §4

Usually IC50 stands for the concentration that gives 50% inhibition. Higher therefore signals lower potency. By EC50 is commonly meant the concentration needed to bring the measured effect to its halfway point. Usually Kd stands for a measure of binding affinity in units of concentration. The term koff denotes a measure of how fast the partners let go of each other. Lower therefore signals a long-lived complex. One may read the kon as a measure of how fast the partners come together. High values mean fast association, low ones slow association.

B1: monoclonal antibody 10A4.F7 (antibody, V domains shown)
VH: QLQLQESGPGLVKPSETLSLTCTVSGGSISSRSYYWGWIRQPPGKGLEWIGSIYYNGRTYYNPSLKSRVTISVDTSKNQFSLKLSSVTAADTAVYYCAREDYGDYGAFDIWGQGTMVTVSS
VL: AIQLTQSPSSLSASVGDRVTITCRASQGISSALAWYQQKPGKAPKLLIYDASSLESGVPSRFSGSGSGTDFTLTISSLQPEDFATYYCQQFNSYPLTFGGGTKVEIK
notes: Hybridoma subclone of parental clone 10A4 (KM mouse, human IgG kappa); also called TL1A 2596.10A4.F7
In assay [1], B1 registered an IC50 of 525 pM. In addition, in assay [2], the EC50 was 407 pM. Also, in assay [3], the IC50 stood at 524 pM. In assay [4], this molecule displayed a Kd of 380 pM, a koff of 2.9e-05 s⁻¹ and a kon of 75000 M⁻¹ s⁻¹. The EC50 in assay [5] amounted to 400 pM.

Values taken from US20190135928A1 (Bristol-Myers Squibb, published 2019).
